Test results taken from the supplement of paper PMC9112550, “Optimization of the antimicrobial peptide Bac7 by deep mutational scanning” (BMC Biology, 2022).

system: Escherichia coli TOP10; test: shrunken log2 fold change of peptide-encoding DNA abundance (4.5 h post-induction vs induction); higher = less antimicrobial activity (less host growth inhibition); conditions: time post-induction: 4.5 h; library: site-saturation at positions 5, 18, 19, 20
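Note: peptides expressed intracellularly from a pBAD plasmid library in pooled LB shake-flask culture, induced with 0.3% L-arabinose, DNA abundance read by NGS, three biological replicates, DESeq2 with apeglm shrinkage.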

Sequence	shrunken log2 fold change
RRIRVRPPRLPRPRPRPRNAPRP	0.225
RRIRERPPRLPRPRPRPCKHPRP	-0.5
RRIRVRPPRLPRPRPRPLRHPRP	0.288
RRIRVRPPRLPRPRPRPEPQPRP	0.363
RRIRYRPPRLPRPRPRPQVYPRP	-0.169
RRIRFRPPRLPRPRPRPFWAPRP	0.166
RRIRARPPRLPRPRPRPWMEPRP	-0.0866
RRIRCRPPRLPRPRPRPHIRPRP	-0.585
RRIRGRPPRLPRPRPRPSHPPRP	0.372
RRIRQRPPRLPRPRPRPFPFPRP	-0.00711
RRIRWRPPRLPRPRPRPECHPRP	0.563
RRIRMRPPRLPRPRPRPHCNPRP	0.043
RRIRKRPPRLPRPRPRPSQIPRP	0.00892
RRIRHRPPRLPRPRPRPGTKPRP	-0.0254
RRIRNRPPRLPRPRPRPWIEPRP	-0.042
RRIRGRPPRLPRPRPRPLMWPRP	0.4
RRIRLRPPRLPRPRPRPTFAPRP	0.394
RRIRARPPRLPRPRPRPEPWPRP	0.742
RRIRERPPRLPRPRPRPIYTPRP	0.036
RRIRGRPPRLPRPRPRPYPPPRP	-0.0824
RRIRLRPPRLPRPRPRPRYFPRP	-0.319
RRIRERPPRLPRPRPRPQCRPRP	-0.401
RRIRHRPPRLPRPRPRPNFIPRP	-0.0658
RRIRRRPPRLPRPRPRPDRQPRP	-0.114
RRIRQRPPRLPRPRPRPSLLPRP	-0.216

Sequence	shrunken log2 fold change
RRIRFRPPRLPRPRPRPKQAPRP	-0.0316
RRIRARPPRLPRPRPRPFWYPRP	-0.181
RRIRDRPPRLPRPRPRPRHKPRP	0.227
RRIRTRPPRLPRPRPRPTSAPRP	0.587
RRIRCRPPRLPRPRPRPWIRPRP	-0.374
RRIRLRPPRLPRPRPRPIQLPRP	-0.235
RRIRKRPPRLPRPRPRPMAGPRP	0.0722
RRIRMRPPRLPRPRPRPDTVPRP	0.00533
RRIRWRPPRLPRPRPRPCFYPRP	-0.249
RRIRQRPPRLPRPRPRPVLKPRP	-0.108
RRIRLRPPRLPRPRPRPIDMPRP	-0.184
RRIRCRPPRLPRPRPRPDCPPRP	-0.343
RRIRSRPPRLPRPRPRPDFHPRP	-0.751
RRIRMRPPRLPRPRPRPGNFPRP	0.121
RRIRFRPPRLPRPRPRPSHPPRP	-0.19
RRIRTRPPRLPRPRPRPEVWPRP	0.546
RRIRCRPPRLPRPRPRPYIEPRP	-1.03
RRIRGRPPRLPRPRPRPYCVPRP	-0.237
RRIRYRPPRLPRPRPRPHIWPRP	-0.272
RRIRLRPPRLPRPRPRPVPDPRP	0.00559
RRIRVRPPRLPRPRPRPVSLPRP	0.106
RRIRCRPPRLPRPRPRPFGNPRP	-0.365
RRIRNRPPRLPRPRPRPLKRPRP	-0.0368
RRIRVRPPRLPRPRPRPRSFPRP	0.029
RRIRWRPPRLPRPRPRPTKYPRP	-0.124

Sequence	shrunken log2 fold change
RRIRNRPPRLPRPRPRPFPVPRP	-0.125
RRIRRRPPRLPRPRPRPSMVPRP	-0.298
RRIRNRPPRLPRPRPRPTNHPRP	-0.527
RRIRFRPPRLPRPRPRPDLWPRP	0.187
RRIRNRPPRLPRPRPRPCEFPRP	-0.398
RRIRMRPPRLPRPRPRPLMAPRP	2.47
RRIRNRPPRLPRPRPRPLNHPRP	-0.286
RRIRCRPPRLPRPRPRPSRGPRP	0.333
RRIRNRPPRLPRPRPRPKRVPRP	0.148
RRIRNRPPRLPRPRPRPLRSPRP	0.119
RRIRPRPPRLPRPRPRPEESPRP	-0.0202
RRIRLRPPRLPRPRPRPGQIPRP	0.207
RRIRWRPPRLPRPRPRPWTLPRP	-0.0248
RRIRMRPPRLPRPRPRPITNPRP	-0.192
RRIRCRPPRLPRPRPRPPAGPRP	0.79
RRIRQRPPRLPRPRPRPDDGPRP	-0.171
RRIRARPPRLPRPRPRPKMVPRP	0.116
RRIRKRPPRLPRPRPRPDMWPRP	0.245
RRIRERPPRLPRPRPRPSQSPRP	-0.346
RRIRVRPPRLPRPRPRPYKMPRP	-0.428
RRIRDRPPRLPRPRPRPDKGPRP	-0.0944
RRIRIRPPRLPRPRPRPVNDPRP	-0.00973
RRIRFRPPRLPRPRPRPIASPRP	-0.015
RRIRYRPPRLPRPRPRPLESPRP	-0.0422
RRIRVRPPRLPRPRPRPLGIPRP	-0.105

Sequence	shrunken log2 fold change
RRIRPRPPRLPRPRPRPYHSPRP	-0.659
RRIRKRPPRLPRPRPRPCWAPRP	0.114
RRIRMRPPRLPRPRPRPQFYPRP	-0.263
RRIRMRPPRLPRPRPRPYQMPRP	0.119
RRIRVRPPRLPRPRPRPFVTPRP	-0.206
RRIRRRPPRLPRPRPRPVLIPRP	0.177
RRIRLRPPRLPRPRPRPGNVPRP	0.0636
RRIRVRPPRLPRPRPRPPLYPRP	-0.00849
RRIRRRPPRLPRPRPRPTYRPRP	0.309
RRIRHRPPRLPRPRPRPSHCPRP	-0.0642
RRIRPRPPRLPRPRPRPQNVPRP	-0.212
RRIRMRPPRLPRPRPRPSFAPRP	0.301
RRIRNRPPRLPRPRPRPPCKPRP	0.0896
RRIRNRPPRLPRPRPRPWVYPRP	-0.0702
RRIRHRPPRLPRPRPRPQDKPRP	-0.355
RRIRERPPRLPRPRPRPVRRPRP	-0.172
RRIRLRPPRLPRPRPRPMISPRP	0.00361
RRIRYRPPRLPRPRPRPKLSPRP	-0.204
RRIRTRPPRLPRPRPRPQRAPRP	0.265
RRIRGRPPRLPRPRPRPRYVPRP	-0.0805
RRIRVRPPRLPRPRPRPGNHPRP	-0.245
RRIRHRPPRLPRPRPRPMCDPRP	-0.0945
RRIRERPPRLPRPRPRPVWNPRP	-0.165
RRIRMRPPRLPRPRPRPYLWPRP	0.0857
RRIRWRPPRLPRPRPRPACNPRP	-0.144

Sequence	shrunken log2 fold change
RRIRDRPPRLPRPRPRPSTNPRP	-0.16
RRIRERPPRLPRPRPRPLIGPRP	-0.0644
RRIRVRPPRLPRPRPRPCKYPRP	-0.725
RRIRDRPPRLPRPRPRPTGRPRP	0.134
RRIRYRPPRLPRPRPRPEIQPRP	0.0356
RRIRFRPPRLPRPRPRPAHSPRP	-0.156
RRIRIRPPRLPRPRPRPEGNPRP	0.0775
RRIRLRPPRLPRPRPRPVWLPRP	0.242
RRIRCRPPRLPRPRPRPSLKPRP	-0.23
RRIRVRPPRLPRPRPRPQPVPRP	-0.195
RRIRYRPPRLPRPRPRPWNFPRP	-0.00304
RRIRFRPPRLPRPRPRPYFLPRP	-0.628
RRIRTRPPRLPRPRPRPAWVPRP	0.285
RRIRNRPPRLPRPRPRPTEGPRP	0.0116
RRIRCRPPRLPRPRPRPNGLPRP	-0.132
RRIRMRPPRLPRPRPRPWNKPRP	-0.535
RRIRSRPPRLPRPRPRPFWAPRP	-0.00411
RRIRGRPPRLPRPRPRPSGCPRP	0.477
RRIRERPPRLPRPRPRPDWTPRP	0.0763
RRIRPRPPRLPRPRPRPWMGPRP	-0.114
RRIRSRPPRLPRPRPRPYRFPRP	-0.134
RRIRGRPPRLPRPRPRPGLQPRP	0.236
RRIRPRPPRLPRPRPRPGVLPRP	0.219
RRIRNRPPRLPRPRPRPIGHPRP	-0.0117
RRIRWRPPRLPRPRPRPHRFPRP	0.077

Sequence	shrunken log2 fold change
RRIRRRPPRLPRPRPRPVCRPRP	0.562
RRIRQRPPRLPRPRPRPEDSPRP	-0.0908
RRIRLRPPRLPRPRPRPFHLPRP	-0.177
RRIRPRPPRLPRPRPRPIRCPRP	0.125
RRIRVRPPRLPRPRPRPHVTPRP	-0.304
RRIRSRPPRLPRPRPRPFPTPRP	-0.101
RRIRYRPPRLPRPRPRPFPHPRP	-0.137
RRIRSRPPRLPRPRPRPGKFPRP	-0.111
RRIRNRPPRLPRPRPRPYHSPRP	-0.654
RRIRHRPPRLPRPRPRPYVRPRP	0.017
RRIRERPPRLPRPRPRPYGQPRP	-0.315
RRIRSRPPRLPRPRPRPNWHPRP	-0.137
RRIRFRPPRLPRPRPRPKTPPRP	0.207
RRIRLRPPRLPRPRPRPESPPRP	0.124
RRIRCRPPRLPRPRPRPMVVPRP	-0.0292
RRIRLRPPRLPRPRPRPNNMPRP	-0.703
RRIRMRPPRLPRPRPRPNVVPRP	-0.0912
RRIRPRPPRLPRPRPRPRYIPRP	-0.602
RRIRDRPPRLPRPRPRPEGVPRP	0.166
RRIRYRPPRLPRPRPRPEHWPRP	-0.0026
RRIRMRPPRLPRPRPRPIAAPRP	2.71
RRIRHRPPRLPRPRPRPSFDPRP	-0.429
RRIRPRPPRLPRPRPRPPRYPRP	0.237
RRIRCRPPRLPRPRPRPHIGPRP	0.000633
RRIRDRPPRLPRPRPRPWSMPRP	-0.0018
